From paper PMC8914513

Columns and labels:
[1] = target: serine hydroxymethyltransferase, cytosolic (SHMT1), His-tagged, immobilised in QCM-D (UniProt P34896); assay: QCM-D (quartz crystal microbalance with dissipation monitoring); two proteins: 5 uM His-tagged SHMT immobilised on His-tag capturing sensor QSX340; tagless ligand introduced (0.1-1.0 uM or 0.5-7.0 uM for TS, pTS or DHFR); 20 mM Tris-HCl pH 7.6, 100 mM (salt not given), 10 mM MgCl2, 0.05% Tween 20, 25 C, 200 ul/min; Langmuir isotherm fit
[2] = target: CK2alpha-phosphorylated thymidylate synthase fraction (pTS), as used in MST (human) (UniProt P04818); assay: MST; two proteins in solution, Premium capillaries: labeled DHFR with SHMT 157 uM-4.79 nM; labeled SHMT with TS 62.0 uM-1.9 nM; labeled pTS with SHMT 157 uM-4.79 nM; Kd model fit
DHFR (Homo sapiens) [3] = target: DHFR (Homo sapiens) (UniProt P00374); assay: QCM-D; conditions: cited from earlier work
DHFR (Homo sapiens) [4] = target: DHFR (Homo sapiens) (UniProt P00374); assay: MST; conditions: cited from earlier work

thymidylate synthase, sequence (P04818 2-313): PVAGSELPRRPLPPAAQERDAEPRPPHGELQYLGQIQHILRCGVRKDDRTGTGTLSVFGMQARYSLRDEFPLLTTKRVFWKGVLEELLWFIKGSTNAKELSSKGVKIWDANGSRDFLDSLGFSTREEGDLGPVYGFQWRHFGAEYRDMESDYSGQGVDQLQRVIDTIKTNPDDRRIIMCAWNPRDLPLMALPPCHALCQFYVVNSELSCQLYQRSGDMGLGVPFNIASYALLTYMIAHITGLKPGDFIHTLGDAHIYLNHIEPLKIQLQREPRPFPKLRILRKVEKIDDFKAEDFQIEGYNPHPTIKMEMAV
DHFR (Homo sapiens), sequence (P00374 whole entry): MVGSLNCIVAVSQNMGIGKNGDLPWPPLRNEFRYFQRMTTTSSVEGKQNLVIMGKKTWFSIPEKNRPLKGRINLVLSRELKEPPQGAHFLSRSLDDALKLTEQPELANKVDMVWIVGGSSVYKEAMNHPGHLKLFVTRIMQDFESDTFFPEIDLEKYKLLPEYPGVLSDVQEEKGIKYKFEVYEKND
CK2alpha-phosphorylated thymidylate synthase fraction (pTS), as used in MST (human), sequence (P04818 whole entry): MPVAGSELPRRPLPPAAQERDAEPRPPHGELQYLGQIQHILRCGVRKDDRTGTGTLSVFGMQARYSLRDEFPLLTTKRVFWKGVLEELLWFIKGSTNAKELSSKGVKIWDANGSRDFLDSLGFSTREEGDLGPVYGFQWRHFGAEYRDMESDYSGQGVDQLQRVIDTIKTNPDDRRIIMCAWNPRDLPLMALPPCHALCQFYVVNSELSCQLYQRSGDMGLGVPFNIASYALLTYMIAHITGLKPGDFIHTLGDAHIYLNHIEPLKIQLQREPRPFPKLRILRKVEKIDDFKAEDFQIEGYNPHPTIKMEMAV
serine hydroxymethyltransferase, cytosolic (SHMT1), His-tagged, immobilised in QCM-D, sequence (P34896 whole entry): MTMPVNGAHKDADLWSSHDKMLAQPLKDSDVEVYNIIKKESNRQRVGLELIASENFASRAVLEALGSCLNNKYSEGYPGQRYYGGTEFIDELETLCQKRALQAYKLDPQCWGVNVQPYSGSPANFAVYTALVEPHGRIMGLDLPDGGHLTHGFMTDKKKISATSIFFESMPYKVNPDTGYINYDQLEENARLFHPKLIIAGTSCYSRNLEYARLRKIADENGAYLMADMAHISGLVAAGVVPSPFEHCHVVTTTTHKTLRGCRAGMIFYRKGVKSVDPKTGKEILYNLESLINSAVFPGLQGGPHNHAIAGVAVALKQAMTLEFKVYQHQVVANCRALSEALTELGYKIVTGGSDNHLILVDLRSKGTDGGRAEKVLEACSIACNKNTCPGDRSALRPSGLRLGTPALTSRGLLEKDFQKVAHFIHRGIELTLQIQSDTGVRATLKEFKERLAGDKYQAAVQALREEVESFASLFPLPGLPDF

**Q.** For “CK2alpha-phosphorylated thymidylate synthase fraction (pTS), tagless ligand in QCM-D (from UniProt P04818 1-313) (enzyme)”, which Kd [1] is on record?
**A.** 5.35 µM

**Q.** Which Kd [2] does the source give for “serine hydroxymethyltransferase, cytosolic (SHMT1), as used in MST (from UniProt P34896 1-483) (enzyme)” here?
**A.** 0.219 µM

**Q.** Which results are given for “thymidylate synthase (from UniProt P04818)”?
**A.** Kd (DHFR (Homo sapiens) [3]): 7.6 µM; Kd (DHFR (Homo sapiens) [4]): 2.8 µM
